Assay results taken from the supplement of paper PMC10065799, “High-throughput profiling of sequence recognition by tyrosine kinases and SH2 domains using bacterial peptide display” (eLife, 2023).

Tests used:
SHP2-C SH2 = experiment: SH2 binding enrichment of the phosphorylated peptide, bacterial display (enrichment ratio); higher = better substrate or ligand; peptides without Tyr show the background
c-Src SH2 = experiment: as above
Grb2 SH2 = Grb2 SH2 (UniProt P62993); experiment: as above
c-Abl (mouse) = experiment: phosphorylation enrichment, bacterial display (enrichment ratio); higher = better substrate or ligand; peptides without Tyr show the background
Jak2 = Jak2 (UniProt O60674); experiment: as above
MERTK = MERTK (UniProt Q12866); experiment: as above
Fer (mouse) = experiment: as above
EPHB1 = EPHB1 (UniProt P54762); experiment: as above
Fes = Fes (UniProt P07332); experiment: as above
c-Src = experiment: as above
AncSZ = experiment: as above
FGFR3 = FGFR3 (UniProt P22607); experiment: as above
Hck = Hck (UniProt P08631); experiment: as above
EPHB2 = EPHB2 (UniProt P29323); experiment: as above
FGFR1 = FGFR1 (UniProt P11362); experiment: as above
Fyn = Fyn (UniProt P06241); experiment: as above
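Wherever SH2 binding enrichment of the phosphorylated peptide, bacterial display is given: peptide library displayed on the E. coli surface as eCPX fusions, selected cells deep-sequenced, score is each peptide's frequency after selection divided by its frequency in the input.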
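Wherever phosphorylation enrichment, bacterial display is given: 11-residue human phosphosite peptides and single-mutation variants displayed on the E. coli surface, counted by deep sequencing, each peptide's frequency after selection divided by its frequency in the unselected input library; frequency after pTyr selection over input frequency; kinase dosed for 20-30% of maximal phosphorylation in three min.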

EPHB2, sequence (P29323 whole entry, looked up): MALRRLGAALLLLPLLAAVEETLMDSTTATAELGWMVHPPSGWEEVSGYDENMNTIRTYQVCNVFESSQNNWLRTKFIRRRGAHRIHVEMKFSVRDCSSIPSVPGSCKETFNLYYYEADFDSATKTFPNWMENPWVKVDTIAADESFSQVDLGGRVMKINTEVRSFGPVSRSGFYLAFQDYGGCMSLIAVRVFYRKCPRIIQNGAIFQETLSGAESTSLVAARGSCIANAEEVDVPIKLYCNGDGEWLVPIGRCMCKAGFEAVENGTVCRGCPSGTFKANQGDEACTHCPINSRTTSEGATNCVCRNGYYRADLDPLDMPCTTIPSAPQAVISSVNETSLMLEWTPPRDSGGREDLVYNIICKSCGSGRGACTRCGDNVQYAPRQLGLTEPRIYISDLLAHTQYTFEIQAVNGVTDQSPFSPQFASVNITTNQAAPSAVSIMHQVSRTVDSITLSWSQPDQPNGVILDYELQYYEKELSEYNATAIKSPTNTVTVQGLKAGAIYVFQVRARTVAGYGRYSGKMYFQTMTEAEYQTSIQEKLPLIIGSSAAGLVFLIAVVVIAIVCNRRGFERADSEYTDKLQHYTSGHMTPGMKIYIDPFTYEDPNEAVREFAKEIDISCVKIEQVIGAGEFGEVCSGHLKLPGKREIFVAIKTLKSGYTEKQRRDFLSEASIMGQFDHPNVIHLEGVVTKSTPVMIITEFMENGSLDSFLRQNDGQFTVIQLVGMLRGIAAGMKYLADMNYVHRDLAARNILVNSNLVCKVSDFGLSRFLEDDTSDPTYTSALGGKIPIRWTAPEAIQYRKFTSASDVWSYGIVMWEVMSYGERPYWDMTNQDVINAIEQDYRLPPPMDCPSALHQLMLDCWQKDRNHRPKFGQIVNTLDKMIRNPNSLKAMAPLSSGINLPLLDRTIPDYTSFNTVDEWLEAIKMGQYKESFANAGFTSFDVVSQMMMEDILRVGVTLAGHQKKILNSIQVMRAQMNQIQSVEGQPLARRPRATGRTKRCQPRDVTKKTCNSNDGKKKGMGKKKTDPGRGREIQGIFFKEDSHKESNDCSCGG
FGFR1, sequence (P11362 whole entry, looked up): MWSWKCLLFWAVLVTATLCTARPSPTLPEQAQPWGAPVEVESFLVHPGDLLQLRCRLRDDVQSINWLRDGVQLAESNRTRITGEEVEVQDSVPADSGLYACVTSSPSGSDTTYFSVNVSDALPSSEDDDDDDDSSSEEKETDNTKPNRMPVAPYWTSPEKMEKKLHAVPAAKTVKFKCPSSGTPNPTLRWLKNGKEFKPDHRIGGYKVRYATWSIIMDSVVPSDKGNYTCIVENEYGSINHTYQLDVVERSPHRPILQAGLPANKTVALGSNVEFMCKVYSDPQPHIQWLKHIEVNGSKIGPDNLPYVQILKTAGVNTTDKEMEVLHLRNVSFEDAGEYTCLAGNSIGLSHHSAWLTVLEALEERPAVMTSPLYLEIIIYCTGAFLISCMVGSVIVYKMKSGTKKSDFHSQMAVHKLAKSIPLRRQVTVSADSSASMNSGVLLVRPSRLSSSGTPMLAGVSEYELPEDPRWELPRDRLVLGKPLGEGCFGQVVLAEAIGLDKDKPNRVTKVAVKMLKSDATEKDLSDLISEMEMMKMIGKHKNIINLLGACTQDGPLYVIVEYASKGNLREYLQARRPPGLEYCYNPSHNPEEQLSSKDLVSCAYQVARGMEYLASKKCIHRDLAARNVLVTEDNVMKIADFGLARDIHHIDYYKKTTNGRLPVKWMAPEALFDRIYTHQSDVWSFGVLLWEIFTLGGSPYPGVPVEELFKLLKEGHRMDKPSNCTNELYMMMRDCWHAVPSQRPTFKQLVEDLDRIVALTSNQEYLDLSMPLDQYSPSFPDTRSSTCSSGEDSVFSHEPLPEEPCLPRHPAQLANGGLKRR
Jak2, sequence (O60674 whole entry, looked up): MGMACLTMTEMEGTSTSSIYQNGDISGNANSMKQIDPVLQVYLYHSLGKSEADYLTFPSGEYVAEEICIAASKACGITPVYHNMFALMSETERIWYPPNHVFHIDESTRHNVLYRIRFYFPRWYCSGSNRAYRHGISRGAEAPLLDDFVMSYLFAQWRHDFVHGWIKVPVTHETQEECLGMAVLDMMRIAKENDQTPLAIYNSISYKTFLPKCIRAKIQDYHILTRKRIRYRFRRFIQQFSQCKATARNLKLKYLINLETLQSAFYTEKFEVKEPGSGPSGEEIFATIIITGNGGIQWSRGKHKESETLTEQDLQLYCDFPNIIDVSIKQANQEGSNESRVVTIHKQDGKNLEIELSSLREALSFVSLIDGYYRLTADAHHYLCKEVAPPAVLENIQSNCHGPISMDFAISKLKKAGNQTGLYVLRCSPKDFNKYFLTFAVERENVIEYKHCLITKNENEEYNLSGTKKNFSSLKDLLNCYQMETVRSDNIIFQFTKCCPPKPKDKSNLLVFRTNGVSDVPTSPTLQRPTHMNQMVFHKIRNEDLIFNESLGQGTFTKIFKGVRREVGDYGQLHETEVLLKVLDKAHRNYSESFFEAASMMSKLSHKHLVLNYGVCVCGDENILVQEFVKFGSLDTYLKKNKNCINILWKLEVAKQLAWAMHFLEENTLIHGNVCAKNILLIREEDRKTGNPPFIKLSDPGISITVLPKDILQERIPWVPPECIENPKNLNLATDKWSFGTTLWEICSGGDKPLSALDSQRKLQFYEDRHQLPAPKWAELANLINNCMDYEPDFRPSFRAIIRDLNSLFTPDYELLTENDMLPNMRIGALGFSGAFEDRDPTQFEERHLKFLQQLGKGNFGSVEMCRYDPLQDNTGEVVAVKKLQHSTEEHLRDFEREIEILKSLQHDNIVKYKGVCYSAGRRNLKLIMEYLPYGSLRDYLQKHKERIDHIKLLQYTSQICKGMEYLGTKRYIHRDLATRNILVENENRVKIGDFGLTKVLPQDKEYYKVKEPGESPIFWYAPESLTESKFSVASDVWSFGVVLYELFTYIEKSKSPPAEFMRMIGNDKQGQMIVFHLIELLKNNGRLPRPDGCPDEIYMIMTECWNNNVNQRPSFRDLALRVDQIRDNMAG
MERTK, sequence (Q12866 whole entry, looked up): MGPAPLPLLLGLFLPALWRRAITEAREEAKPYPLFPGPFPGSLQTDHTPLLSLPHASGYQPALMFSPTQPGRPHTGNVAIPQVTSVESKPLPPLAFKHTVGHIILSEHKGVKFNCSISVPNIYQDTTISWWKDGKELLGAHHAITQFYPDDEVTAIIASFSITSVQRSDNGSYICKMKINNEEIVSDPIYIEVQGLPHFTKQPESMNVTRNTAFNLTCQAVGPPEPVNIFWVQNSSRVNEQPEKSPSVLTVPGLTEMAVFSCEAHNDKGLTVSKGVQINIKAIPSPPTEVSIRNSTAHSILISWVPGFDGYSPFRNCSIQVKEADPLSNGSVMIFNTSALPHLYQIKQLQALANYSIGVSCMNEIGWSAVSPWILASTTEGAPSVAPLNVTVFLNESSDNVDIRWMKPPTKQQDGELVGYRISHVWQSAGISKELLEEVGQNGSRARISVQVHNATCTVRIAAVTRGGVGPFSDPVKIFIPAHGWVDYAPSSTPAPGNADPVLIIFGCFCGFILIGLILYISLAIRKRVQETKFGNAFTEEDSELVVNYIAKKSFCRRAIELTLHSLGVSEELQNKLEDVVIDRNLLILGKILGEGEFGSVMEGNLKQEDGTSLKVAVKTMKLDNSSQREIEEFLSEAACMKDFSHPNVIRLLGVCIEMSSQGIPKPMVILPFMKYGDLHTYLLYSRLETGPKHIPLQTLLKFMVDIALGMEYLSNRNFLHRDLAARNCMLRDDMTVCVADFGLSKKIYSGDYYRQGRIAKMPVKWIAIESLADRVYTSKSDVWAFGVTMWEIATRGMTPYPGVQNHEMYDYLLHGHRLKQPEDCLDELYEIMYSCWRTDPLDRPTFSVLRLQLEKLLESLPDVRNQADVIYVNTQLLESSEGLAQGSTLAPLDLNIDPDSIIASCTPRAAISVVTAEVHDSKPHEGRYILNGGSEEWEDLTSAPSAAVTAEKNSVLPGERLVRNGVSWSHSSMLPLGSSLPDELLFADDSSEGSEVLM
Hck, sequence (P08631 whole entry, looked up): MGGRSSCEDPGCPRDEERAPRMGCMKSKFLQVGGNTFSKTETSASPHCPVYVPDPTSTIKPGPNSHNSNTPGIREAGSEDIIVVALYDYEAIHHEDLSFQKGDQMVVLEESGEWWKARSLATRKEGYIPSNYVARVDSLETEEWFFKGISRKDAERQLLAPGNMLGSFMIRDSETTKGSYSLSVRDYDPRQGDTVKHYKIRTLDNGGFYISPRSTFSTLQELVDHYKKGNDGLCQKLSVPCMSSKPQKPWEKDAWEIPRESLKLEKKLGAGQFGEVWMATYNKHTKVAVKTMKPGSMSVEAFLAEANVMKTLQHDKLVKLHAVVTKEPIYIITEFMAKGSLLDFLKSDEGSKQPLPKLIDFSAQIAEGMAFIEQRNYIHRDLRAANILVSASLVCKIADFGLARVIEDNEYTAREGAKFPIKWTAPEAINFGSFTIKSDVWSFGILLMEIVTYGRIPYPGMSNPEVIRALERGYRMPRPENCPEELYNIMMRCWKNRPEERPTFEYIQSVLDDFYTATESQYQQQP
Fyn, sequence (P06241 whole entry, looked up, the tested form may be a part): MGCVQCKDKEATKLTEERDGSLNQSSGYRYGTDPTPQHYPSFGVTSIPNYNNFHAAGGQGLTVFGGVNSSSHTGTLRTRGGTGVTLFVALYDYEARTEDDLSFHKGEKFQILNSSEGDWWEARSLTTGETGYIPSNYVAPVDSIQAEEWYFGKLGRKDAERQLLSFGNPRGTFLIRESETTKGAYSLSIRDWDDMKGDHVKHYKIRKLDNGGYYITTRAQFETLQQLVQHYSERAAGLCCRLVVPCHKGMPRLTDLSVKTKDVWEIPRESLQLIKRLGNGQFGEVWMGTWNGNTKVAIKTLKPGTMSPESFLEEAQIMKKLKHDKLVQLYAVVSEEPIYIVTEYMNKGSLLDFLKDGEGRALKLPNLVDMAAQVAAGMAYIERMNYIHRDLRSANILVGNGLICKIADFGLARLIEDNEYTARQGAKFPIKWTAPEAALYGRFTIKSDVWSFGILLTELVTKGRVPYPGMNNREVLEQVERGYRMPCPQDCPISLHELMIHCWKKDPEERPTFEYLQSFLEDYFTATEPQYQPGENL

Sequence | SH2 binding enrichment (SHP2-C SH2) | SH2 binding enrichment (c-Src SH2) | SH2 binding enrichment (Grb2 SH2) | phosphorylation enrichment (c-Abl (mouse)) | phosphorylation enrichment (Jak2) | phosphorylation enrichment (MERTK) | phosphorylation enrichment (Fer (mouse)) | phosphorylation enrichment (EPHB1) | phosphorylation enrichment (Fes) | phosphorylation enrichment (c-Src) | phosphorylation enrichment (AncSZ) | phosphorylation enrichment (FGFR3) | phosphorylation enrichment (Hck) | phosphorylation enrichment (EPHB2) | phosphorylation enrichment (FGFR1) | phosphorylation enrichment (Fyn)
QRRLVYFERGA [RYR1_Y245_G248R_YF] | 0.578 | 0.65 | 0.942 | 0.805 | 0.811 | 0.484 | 0.586 | 0.665 | 0.827 | 0.569 | 0.847 | 0.742 | 0.507 | 0.79 | 0.918 | 0.584
QTEAQYRFIFM [PTPN11_Y511_YF] | 0.777 | 0.355 | 0.627 | 1.82 | 1.78 | 0.58 | 0.785 | 0.774 | 1.92 | 0.702 | 1.18 | 1.02 | 0.688 | 0.467 | 0.893 | 0.612
QTPVLYAMLFH [MPZ_Y220_D224Y_YF] | 0.778 | 0.601 | 1.03 | 1.61 | 1.39 | 7.73 | 6.25 | 6.9 | 1.23 | 4.04 | 0.771 | 2.13 | 5.5 | 4.17 | 2.41 | 4.56
QYNPEYVQQAS [LRRC7_Y1058_H1054Y] | 1.47 | 0.431 | 1.06 | 1 | 0.995 | 0.635 | 0.939 | 0.687 | 1.28 | 0.508 | 1.16 | 1.05 | 0.831 | 0.802 | 0.854 | 0.707
RAIELCNDKEK [OTULIN_Y244_Y244C] | 0.762 | 0.753 | 1 | 0.682 | 0.752 | 0.395 | 0.471 | 0.406 | 1.38 | 0.481 | 0.852 | 0.425 | 0.381 | 0.76 | 0.354 | 0.509
RCKSHYAAFSV [C1QTNF1_Y145] | 1.73 | 1.34 | 1.45 | 4.74 | 0.737 | 2.89 | 1.46 | 1.43 | 1.35 | 1.07 | 1.41 | 0.983 | 1.42 | 0.903 | 1.1 | 1.4
REETTYLPLTS [ICAM3_Y527_S525T] | 0.746 | 0.36 | 0.957 | 0.781 | 1.03 | 0.901 | 0.608 | 0.656 | 1.05 | 1.61 | 1.39 | 0.644 | 1.7 | 0.548 | 0.74 | 0.864
RFQKLYLDRNL [IGFALS_Y248_L244F] | 0.771 | 0.463 | 0.793 | 0.486 | 0.538 | 0.342 | 0.224 | 0.529 | 0.761 | 0.332 | 0.726 | 0.655 | 0.569 | 0.509 | 0.636 | 0.492
RHFTGCRIELQ [INSR_Y818_Y818C] | 0.771 | 0.714 | 0.835 | 0.665 | 0.884 | 0.421 | 0.503 | 0.545 | 1.49 | 0.508 | 0.779 | 0.672 | 0.613 | 0.778 | 0.488 | 0.403

Second part, led by results:

SH2 binding enrichment (SHP2-C SH2) | SH2 binding enrichment (c-Src SH2) | SH2 binding enrichment (Grb2 SH2) | Sequence | phosphorylation enrichment (c-Abl (mouse)) | phosphorylation enrichment (Jak2) | phosphorylation enrichment (MERTK) | phosphorylation enrichment (Fer (mouse)) | phosphorylation enrichment (EPHB1) | phosphorylation enrichment (Fes) | phosphorylation enrichment (c-Src) | phosphorylation enrichment (AncSZ) | phosphorylation enrichment (FGFR3) | phosphorylation enrichment (Hck) | phosphorylation enrichment (EPHB2) | phosphorylation enrichment (FGFR1) | phosphorylation enrichment (Fyn)
0.852 | 0.549 | 1.2 | QSRSPYSSRHS [CDK13_Y415_R410Q] | 0.597 | 0.823 | 0.452 | 0.543 | 0.471 | 0.808 | 0.705 | 0.85 | 0.541 | 0.593 | 0.443 | 0.558 | 0.715
0.757 | 0.678 | 0.815 | QTLTDYDTRFY [CSNK2A3_Y131_I133T] | 0.692 | 1.06 | 0.483 | 0.749 | 0.861 | 1.25 | 0.428 | 1.01 | 0.69 | 0.619 | 0.667 | 0.612 | 0.556
11.8 | 3.44 | 0.866 | QTPVLYTMLDH [MPZ_Y220_A221T] | 0.674 | 0.907 | 13.4 | 10.7 | 4.45 | 1.14 | 3 | 0.896 | 3.51 | 5.48 | 1.78 | 2.85 | 2.02
0.746 | 0.656 | 0.92 | RAHARYCADAR [ACOT4_Y52] | 0.689 | 0.533 | 0.444 | 0.333 | 0.444 | 1.08 | 0.419 | 0.614 | 0.633 | 0.54 | 0.676 | 0.406 | 0.392
2.6 | 1.66 | 2.81 | RALRHYFKLNI [ETV6_Y401_YF] | 0.594 | 0.798 | 0.4 | 0.369 | 0.342 | 0.874 | 0.394 | 0.725 | 0.55 | 0.377 | 0.358 | 0.485 | 0.373
2.06 | 0.654 | 0.907 | RESVSYLFSHV [PRPS1_Y311_G306R] | 1.06 | 1.15 | 0.492 | 0.479 | 0.588 | 1.12 | 0.742 | 1 | 0.814 | 0.549 | 0.901 | 0.532 | 1.41
1.14 | 0.988 | 1.34 | RHPFFYAPELL [ALB_Y174_YF] | 1.12 | 1.97 | 0.839 | 1.06 | 1.18 | 1.99 | 1.05 | 1.61 | 0.969 | 0.733 | 1.04 | 1.25 | 1.32
